Results: patent US9329180B2, “Preparation of anti-PEG antibody expressing cell and application thereof” (KAOHSIUNG MEDICAL UNIVERSITY, priority 2010, dated 2016)

B1: AGP3 antibody: monoclonal IgM antibody specific to the PEG backbone; VH SEQ ID NO: 1, VL SEQ ID NO: 2 (antibody, V domains shown)
VH: EVQLVESGGGLVKPGGSLKLSCAASGFTFSDYYMYWVRQTPEKRLEWVATISDDGTYTYYPHSVKGRFTISRDSAKNNLYLQLSSLKSEDTAMYYCARNDARGDYWGQGTSVTVSS
VL: DIVLTQAAFSNPVTLGTSASISCRSSKSLLHSNGITYLYWYLQKPGQSPQLLIYQMSNLASGVPDRFSSSGSGTDFTLRISRVEAEDVGVYYCAQNLELFTFGSGTKLEIKR
modifications: VH domain of AGP3 antibody; VL domain of AGP3 antibody
B2: 15-2 antibody: anti-methoxyl-PEG IgG2b antibody; VH SEQ ID NO: 9, VL SEQ ID NO: 10 (antibody, V domains shown)
VH: EVKLEESGGGLVQPGGSMKLSCVASGFTFSNYWMNWVRQSPEKGLEWVTEIRSKSNNYATHYAESVKGRFTISRDDSKGSVYLQMNNLRAEDTGIYYCSNRYYWGQGTLVTVSA
VL: DIVMTQSHKFMSTSVRDRVTITCKASQDVNTSVAWYQQKPGQSPKLVIYWASTRHTGVPDRFTGSGSGTDFTLTISNVQSEDLADYFCLQYINYPYTFGGGTKLEIKR
modifications: VH domain of 15-2 antibody; VL domain of 15-2 antibody

Key:
[1] = Direct binding of PEG5K-131I to AGP3 antibody-coated and 3T3/AGP3 cell-coated plates (γ counter)
Protocol: (§1) To further investigate the potential mechanism that dictates the differential ability in detecting PEG by the cell surface-expressed anti-PEG antibody and coated AGP3 antibody, the present invention compared direct binding of PEG5K-biotin (FIG. 8A) or PEG5K-^131I (FIGS. 8B and 8C) to AGP3 antibody and 3T3/AGP3 cells precoated in 96-well plates.
The 3T3/AGP3 and 3T3/DNS cells (2×10^5 cells/well) were seeded overnight in 96-well plates in culture medium. After extensive washing, captures were fixed by 1% paraformaldehy for 3 min. Plates were blocked with 5% skim milk in PBS for 2 hours at 37° C. PEG5K-^131I was serially diluted and added to the cells at room temperature for 1 h. After washing, 1N NaOH was added to elute the bound PEG5K-^131I. The radioactivity of these samples was counted on a γ counter.

[2] = Direct binding of PEG5K-biotin, AGP3 antibody-based and 3T3/AGP3 cell-based ELISA; settings: streptavidin-HRP and ABTS, 405 nm
Protocol: as §1
The 3T3/AGP3 and 3T3/DNS cells (2×10^5 cells/well) were seeded overnight in 96-well plates in culture medium. After extensive washing, captures were fixed by 1% paraformaldehy for 3 min. Plates were blocked with 5% skim milk in PBS for 2 hours at 37° C. PEG5K-biotin was serially diluted and added to the cells at room temperature for 1 h. After washing, streptavidin-HRP and ABTS were sequentially added to the plates to quantify the captured PEG5K-biotin. Color development was measured at 405 nm on a microplate reader. Using this method, the detection limit of PEG5K-biotin in the 3T3/AGP3 cell-based ELISA was 15.6 ng/mL (FIG. 8A).

[3] = 3T3/15-2 cell-based or 15-2 antibody-based sandwich ELISA (AGP4-biotin detection); format: binding; settings: cell-based versus antibody-based capture
Protocol: Anti-methoxyl-PEG cells were used as a platform to establish a sandwich ELISA to quantify all kinds of free methoxyl-PEG molecules. 3T3/15-2 cells were seeded into a 96 wells plate. After that, the methoxyl-PEG was added as an analyte, and then a biotinylated anti-PEG antibody (AGP4-Biotin) was used as a detecting antibody. Finally, streptavidin-HRP was added into the 96 wells plate. After adequate washing, the concentration of methoxyl-PEG was known by observing the color intensity of the matrix coated on the 96 wells plate. With existence of serum, this method can quantify all kinds of free methoxyl-PEG molecules (CH3O-PEG2K and CH3O-PEG5K), and the sensitivity was better than using 3T3/AGP3 platform. Therefore, the sandwich ELISA method using 3T3/15-2 platform can sensitively quantify all kinds of methoxyl-PEG molecules.
To test whether 3T3/15-2 cell-based or 15-2 antibody-based sandwich ELISA could be used to quantify CH3O-PEG molecules, CH3O-PEG (1K, 2K, 5K, and 20K Da) or Lipo-Dox (liposomal doxorubicin conjugated with CH3O-PEG2K) was added to 3T3/15-2 cell or 15-2 antibody coated 96 well/plates, respectively. Captured mPEG molecules were then quantified by sequential addition of biotinylated AGP4 antibody (AGP4-biotin), streptavidin-conjugated horseradish peroxidase (streptavidin-HRP) and ABTS substrate. […] The sensitivity depended on the length of the PEG chain. […]

[4] = system: Lipo-Dox (liposomal doxorubicin conjugated with CH3O-PEG2K); assay: as above; format: binding; settings: cell-based versus antibody-based capture
Protocol: To test whether 3T3/15-2 cell-based or 15-2 antibody-based sandwich ELISA could be used to quantify CH3O-PEG molecules, CH3O-PEG (1K, 2K, 5K, and 20K Da) or Lipo-Dox (liposomal doxorubicin conjugated with CH3O-PEG2K) was added to 3T3/15-2 cell or 15-2 antibody coated 96 well/plates, respectively. Captured mPEG molecules were then quantified by sequential addition of biotinylated AGP4 antibody (AGP4-biotin), streptavidin-conjugated horseradish peroxidase (streptavidin-HRP) and ABTS substrate. […] The sensitivity depended on the length of the PEG chain. CH3O-PEG5K and CH3O-PEG2K could be effectively detected at concentrations as low as 1 nM, respectively.

Row | Molecule | signal intensity per well ([1]; 0.74 μCi/mL PEG5K-131I) | signal intensity per well ([1]; 2.22 μCi/mL PEG5K-131I) | signal intensity per well ([1]; 6.67 μCi/mL PEG5K-131I) | signal intensity per well ([1]; 20 μCi/mL PEG5K-131I) | detection limit of PEG5K-biotin [2] | detection of CH3O-PEG molecules above molecular weight of 2000 Da [3] | detection of Lipo-Dox, apparent avidity [4]
1 | B1 | 114 | 210 | 245 | 293 | failed to detect | – | –
2 | B2 | – | – | – | – | – | Only 3T3/15-2 cell-based sandwich ELISA could detect | similar, apparent avidities
